Data published in publication PMC4022879.

Tests used:
[1] = biological target: bovine pancreatic trypsin (bovine); assay: chromogenic enzyme inhibition assay; 1 nM trypsin, 500 μM S2765, 37 °C, 110 mM Tris-HCl pH 8.0, 250 mM NaCl, 1% BSA; residual activity in triplicate at at least six inhibitor concentrations; Ki from a linear fit of 1/v against inhibitor concentration
[2] = biological target: activated coagulation factor XI (FXIa); assay: chromogenic enzyme inhibition assay; 200 pM FXIa, 500 μM S2366, 37 °C, 110 mM Tris-HCl pH 8.0, 250 mM NaCl, 1% BSA; residual activity in triplicate at at least six inhibitor concentrations; Ki from a linear fit of 1/v against inhibitor concentration
[3] = biological target: activated coagulation factor XII (FXIIa); assay: chromogenic enzyme inhibition assay; 1 nM FXIIa, 500 μM S2302, 37 °C, 110 mM Tris-HCl pH 8.0, 250 mM NaCl, 1% BSA; residual activity in triplicate at at least six inhibitor concentrations; Ki from a linear fit of 1/v against inhibitor concentration

Row | Ki [1] | Ki [2] | Ki [3] | Substance
1 | 11700 nM | 94000 nM |  | CHFI-2, synthetic cyclic peptide that resembles the CHFI protease-binding loop (from UniProt P01088 48-73)
2 |  |  | 116 nM | CHFI-123 (from UniProt P01088 29-121) (domain or fragment)
3 | 2.2 nM |  | 3.2 nM | CHFI-234 (from UniProt P01088 40-136) (domain or fragment)
4 | 1 nM |  | 1 nM | CHFI-1234 (from UniProt P01088 29-108) (domain or fragment)
